Columns and labels:
human CD40 [1] = biological target: T1, human CD40 (human, UniProt P25942 21-193); experiment: ELISA on recombinant human CD40 protein, hybridoma supernatant
T1 construct: Recombinant protein coated for ELISA; The primary screen used 'soluble, His-tagged human CD40 (full-length and IgC2)'; also called huCD40; hCD40; not shown: His tag

mouse CD40 = biological target: T2, mouse CD40 (mouse, UniProt P27512 20-193, limits assumed); experiment: ELISA on recombinant mouse CD40 protein, hybridoma supernatant
T2 construct: Recombinant mouse CD40 protein for ELISA; The construct and tag are not described; also called mCD40
T2 sequence (looked up): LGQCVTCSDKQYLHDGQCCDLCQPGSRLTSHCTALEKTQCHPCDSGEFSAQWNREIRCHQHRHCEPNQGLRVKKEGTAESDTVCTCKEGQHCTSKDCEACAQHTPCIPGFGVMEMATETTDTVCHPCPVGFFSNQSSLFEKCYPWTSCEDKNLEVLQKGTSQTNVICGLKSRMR

human CD40 [2] = biological target: T1, human CD40; experiment: ELISA of subcloned hybridoma supernatants on hCD40, anti-mouse IgG-HRP detection
Method: Next, the hybridomas were selected for subcloning to identify monoclonal antibodies against CD40. Briefly, cells were plated at a 1 cell per well density in 384-well plates, confirmed by microscopy, and expanded. After expansion, supernatants were screened by ELISA against hCD40. The mAbs were detected using anti-mouse IgG-conjugated to HRP.

T1 sequence (P25942 21-193 limits assumed): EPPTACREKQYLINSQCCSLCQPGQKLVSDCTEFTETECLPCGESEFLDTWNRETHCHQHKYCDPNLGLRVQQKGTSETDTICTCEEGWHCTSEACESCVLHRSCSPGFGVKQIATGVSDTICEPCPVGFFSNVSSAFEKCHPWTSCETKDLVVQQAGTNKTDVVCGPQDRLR

binding result (human CD40 [1])	binding result (mouse CD40)	binding result (human CD40 [2])	Binder
	no binding	binds	anti-CD40 antibody 41-E17 (antibody, V domains shown, Mouse hybridoma monoclonal antibody tested as hybridoma supernatant and detected with anti-mouse IgG-HRP) VH: DVQLVESGGGLVQPGGSRKLSCAASGFTFSTFGMHWVRQAPEKGLEWVAYISGGSSTIYYADTVKGRFTISRDNPKNTLFLQMTSLRSEDTAMYYCVRPYGSVHYAMDYWGQGTSVTVSS VL: DIQMTQTTSSLSASLGDRVTISCRASQDINNYLNWYQQKPDGTVKLLIYYTSRFHSGVPSRFSGSGSGTDYSLTISNLEQEDIATYFCQQGNTLPWTFGGGTKLDIK
	no binding	binds	anti-CD40 antibody 30-P15 (antibody, V domains shown, Mouse hybridoma monoclonal antibody tested as hybridoma supernatant and detected with anti-mouse IgG-HRP) VH: EVMLVESGGALVKPGGSLKLSCAASGFTFSNYAMSWVRQTPEKRLEWVATIGTSGSYTYYSDSVKGRFTISRDNARNTLYLQMTSLRSEDTAMYYCARRGYYNPTHAMDYWGQGTSVTVSS VL: QAVVTQESALTTSPGETVTLTCRSSTGAVTTSNYANWVQEKPDHLFTGLIGGTNNRAPGVPARFSGSLIGDKAALTITGAQTEDEAIYFCALWYSNHLVFGGGTKLTVL
	no binding	binds	anti-CD40 antibody 12-O17 (antibody, V domains shown, Mouse hybridoma monoclonal antibody tested as hybridoma supernatant and detected with anti-mouse IgG-HRP) VH: QVQLQQSGAELMKPGASVKISCKATGYTFSTYWIEWVKQRPGHGLEWIGEILPGSGSTNYNENFKGKATFTADTSSNTAYMQLSSLTSEDSAVYFCARGGLYYYGGAMDYWGQGTSVTVSS VL: DIVMSQSPSSLAVSVGEKVTMSCKSSQSLLYSGNQKNYLAWYQQKPGQSPKLLIYWASIRESGVPDRFTGSGSGTDFTLTISSVKAEDLAVYYCQQYYSYPYTFGGGTKVEIK
	no binding	binds	anti-CD40 antibody 41-I22 (antibody, V domains shown, Mouse hybridoma monoclonal antibody tested as hybridoma supernatant and detected with anti-mouse IgG-HRP) VH: EVQLQQSGAVLVKPGASVRLSCTASGFNIKDTYIHWVKQRPEQGLEWIGKIDPANGNTKFDPKFQGKATIAADTSSNTAYLQLSSLTSEDTAVYYCARDYYGTIFPYWYFDVWGAGTTVTVSS VL: QIVLTQSPAIMSASPGEKVTITCSASSSVSYMHWFQQKPGTSPKFWIYITSNLASGVPARFSGSGSGTSYSLTISRMEAEDAATYYCQQRSSYPLTFGAGTKLELK

The next lines start with the binder.

Binder	binding result (human CD40 [1])	binding result (mouse CD40)	binding result (human CD40 [2])
anti-CD40 antibody 10-K9 (antibody, V domains shown, Mouse hybridoma monoclonal antibody tested as hybridoma supernatant and detected with anti-mouse IgG-HRP) VH: EVQLVESGGDLVKPGGSLKLSCAASGFTFSSYGMSWVRQTPDKRLEWVATISSDGSHTYYPDSVKGRFTISRDIAKNTLYLQMSSLKSEDTAMYYCVRQGRYVPSFDVWGAGTTVTVSS VL: DIVLTQSPATLSVTPGDSVSLSCRASQSIRNNLHWYQQKSHESPRLLIKDASQSISGTPSRFSGSGSGTDFTLSINSVETEDFGMYFCHQTNNWPFTFGSGTKLEIK	binds	no binding	
anti-CD40 antibody 10-B8 (antibody, V domains shown, Mouse hybridoma monoclonal antibody tested as hybridoma supernatant and detected with anti-mouse IgG-HRP) VH: QVQLQQPGSVLVRPGASVKLSCKASGFTFATSWMHWAKERPGQGLEWIGQIHPNSGNTNYNEKFKGKATLTVDTSSSTAYVDLSSLTSEDSAVYYCARGADYAMDYWGQGTSVTVSS VL: DVLMTQTPLSLPVSLGDQASISCRSSQSIVHSNGNTYLEWYLQKPGQSPKLLIYIVSNRFSGVPDRFSGSGSGTDFTLKISRVEAEDLGVYYCFQGSHVPWTFGGGTKLEIK	binds		
anti-CD40 antibody 26-I22 (antibody, V domains shown, Mouse hybridoma monoclonal antibody tested as hybridoma supernatant and detected with anti-mouse IgG-HRP) VH: QVQLQQPGAELVKPGASVKLSCKASGYTFINYWINWMRQRPGQGLEWIGNIYPGSSSTTYNEKFKSKAALTVDTSSSTAYMQLSSLTSDDSAVYFCARSVGYWYFDVWGAGTTVTVSS VL: DIVMSQSPSSLAVSVGEKVTLSCKSSQSLFFSGNQKNFLAWYQQKPGQSPNLLIFWASTRESGVPDRFTGSGSGTDFTLTISSVKAEDLAVYYCQQYYSYPFTFGSGTKLEIK			binds
anti-CD40 antibody 39-K17 (antibody, V domains shown, Mouse hybridoma monoclonal antibody tested as hybridoma supernatant and detected with anti-mouse IgG-HRP) VH: QVQLQQPGAELVKPGASVKLSCTASGYIFTNYWMNWVKQRPGRGLEWIGRIHPSDSESLYNQKFKSKAILTVDKSSSTAYIQLSSLTSEDSAVYYCARSPLTKVVTTDFWGQGTTLTVSS VL: EIVLTQSPAIMPASPGEKVTMTCSASSSVNYMHWYQQKSGTSPKRWIYDTSKLASGVPVRFSGSGSGTSYSLTISSMEAEDAATYYCQQWSSNPLTFGGGTKLEIK		no binding	binds
anti-CD40 antibody 41-J9 (antibody, V domains shown, Mouse hybridoma monoclonal antibody tested as hybridoma supernatant and detected with anti-mouse IgG-HRP) VH: DVQLQESGPDLVKPSQSLSLTCTVTGYSITSDYSWHWIRQFPGNKLEWMGYIYYSGSTNYNPSLKSRISITRDTSKNQFFLQLNSVTSEDTATYYCARFYYGWSYFDYWGQGTSLTVSS VL: EIVLTQSPAIMPASPGEKVTMTCSASSSVNYMHWYQQKSGTSPKRWIYDTSKLASGVPVRFSGSGSGTSYSLTISSMEAEDAATYYCQQWSSNPLTFGGGTKLEIK		no binding	binds
anti-CD40 antibody 9-P1 (antibody, V domains shown, Mouse hybridoma monoclonal antibody tested as hybridoma supernatant and detected with anti-mouse IgG-HRP) VH: QVQLQQSGAELMKPGASVKISCKATGYTFSTYWIEWVKQRPGHGLEWIGEILPGSGSTNYNEKFRGKATFTADTSSNTAYMQLSSLTSEDSAVYYCARSYYTYDQGSWLAYWGQGTLVTVSA VL: DIVMSQSPSSLAVSVGEKVTMTCKSSQSLLYSGNQKNYLAWYQQKPGQSPKLLINWASTRESGVPDRLTGSGSGTDFSLTISSVKAEDLAVYYCQQYYSYPYTFGGGTKLEIK			binds

From patent US20250230253A1 (Memorial Sloan Kettering, published 2025)
